Measured values from article PMC10397247.

Assays:
[1] = biological target: T1, 4H342-bN; assay: two-hybrid library CCNG1;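 note: natural log of median RNA to DNA barcode read ratio; higher means stronger binding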
T1 chain: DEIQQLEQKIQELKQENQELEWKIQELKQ

[2] = biological target: T2, 4H496-bN; assay: two-hybrid library CCNG1;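 note: natural log of median RNA to DNA barcode read ratio; higher means stronger binding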
T2 chain: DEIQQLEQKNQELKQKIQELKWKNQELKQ

[3] = biological target: T3, 4H3632-bN; assay: two-hybrid library CCNG1;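 note: natural log of median RNA to DNA barcode read ratio; higher means stronger binding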
T3 chain: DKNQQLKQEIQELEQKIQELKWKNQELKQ

[4] = biological target: T4, 4H2691-bN; assay: two-hybrid library CCNG1;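 note: natural log of median RNA to DNA barcode read ratio; higher means stronger binding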
T4 chain: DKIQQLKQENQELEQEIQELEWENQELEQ

[5] = biological target: T5, 4H3070-bN; assay: two-hybrid library CCNG1;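 note: natural log of median RNA to DNA barcode read ratio; higher means stronger binding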
T5 chain: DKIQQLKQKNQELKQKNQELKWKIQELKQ

[6] = biological target: T6, 4H2466-AA; assay: two-hybrid library CCmax; conditions: mean of both orientations;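 note: natural log of median RNA to DNA barcode read ratio; higher means stronger binding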
T6 chain: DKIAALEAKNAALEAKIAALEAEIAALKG

[7] = biological target: T7, 4H906-AA; assay: two-hybrid library CCmax; conditions: mean of both orientations
T7 chain: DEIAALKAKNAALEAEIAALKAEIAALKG

[8] = biological target: T8, 4H2617-AA; assay: two-hybrid library CCmax; conditions: mean of both orientations
T8 chain: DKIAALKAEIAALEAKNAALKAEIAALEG

[9] = biological target: T9, 4H3655-AA; assay: two-hybrid library CCmax; conditions: mean of both orientations
T9 chain: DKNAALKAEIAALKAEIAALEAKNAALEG

[10] = biological target: T10, 4H993-AA; assay: two-hybrid library CCmax; conditions: mean of both orientations
T10 chain: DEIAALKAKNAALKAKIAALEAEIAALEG

[11] = biological target: T11, 4H1636-AA; assay: two-hybrid library CCmax; conditions: mean of both orientations
T11 chain: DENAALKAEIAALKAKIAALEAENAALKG

[12] = biological target: T12, 4H2754-AA; assay: two-hybrid library CCmax; conditions: mean of both orientations
T12 chain: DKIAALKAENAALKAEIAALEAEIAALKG

[13] = biological target: T13, 4H2837-AA; assay: two-hybrid library CCmax; conditions: mean of both orientations
T13 chain: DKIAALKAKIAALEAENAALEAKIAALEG

[14] = biological target: T14, 4H3627-AA; assay: two-hybrid library CCmax; conditions: mean of both orientations
T14 chain: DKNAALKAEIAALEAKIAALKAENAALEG

[15] = biological target: T15, 4H2190-AA; assay: two-hybrid library CCmax; conditions: mean of both orientations
T15 chain: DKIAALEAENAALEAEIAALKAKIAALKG

[16] = biological target: T16, 4H605-AA; assay: two-hybrid library CCmax; conditions: mean of both orientations
T16 chain: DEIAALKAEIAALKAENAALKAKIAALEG

[17] = biological target: T17, 4H1352-AA; assay: two-hybrid library CCmax; conditions: mean of both orientations
T17 chain: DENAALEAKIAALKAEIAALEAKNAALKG

[18] = biological target: T18, 4H2151-AA; assay: two-hybrid library CCmax; conditions: mean of both orientations
T18 chain: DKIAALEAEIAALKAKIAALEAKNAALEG

[19] = biological target: T19, 4H2949-AA; assay: two-hybrid library CCmax; conditions: mean of both orientations
T19 chain: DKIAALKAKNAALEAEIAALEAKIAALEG

[20] = biological target: T20, 4H1324-AA; assay: two-hybrid library CCmax; conditions: mean of both orientations
T20 chain: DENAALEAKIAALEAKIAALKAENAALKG

[21] = biological target: T21, 4H317-AA; assay: two-hybrid library CCmax; conditions: mean of both orientations
T21 chain: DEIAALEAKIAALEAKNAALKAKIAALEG

[22] = biological target: T22, 4H2729-AA; assay: two-hybrid library CCmax; conditions: mean of both orientations
T22 chain: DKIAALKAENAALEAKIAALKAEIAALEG

[23] = biological target: T23, 4H2354-AA; assay: two-hybrid library CCmax; conditions: mean of both orientations
T23 chain: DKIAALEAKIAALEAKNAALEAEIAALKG

[24] = biological target: T24, 4H342-AA; assay: two-hybrid library CCmax; conditions: mean of both orientations
T24 chain: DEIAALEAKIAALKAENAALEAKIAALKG

[25] = biological target: T25, 4H2277-AA; assay: two-hybrid library CCmax; conditions: mean of both orientations
T25 chain: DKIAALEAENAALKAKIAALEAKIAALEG

[26] = biological target: T26, 4H3112-AA; assay: two-hybrid library CCmax; conditions: mean of both orientations
T26 chain: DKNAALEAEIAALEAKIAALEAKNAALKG

[27] = biological target: T27, 4H122-AA; assay: two-hybrid library CCmax
T27 chain: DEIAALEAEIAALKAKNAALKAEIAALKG

[28] = biological target: T28, 4H2393-AA; assay: two-hybrid library CCmax; conditions: mean of both orientations
T28 chain: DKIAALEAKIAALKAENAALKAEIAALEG

[29] = biological target: T29, 4H3606-AA; assay: two-hybrid library CCmax; conditions: mean of both orientations
T29 chain: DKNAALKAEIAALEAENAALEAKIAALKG

[30] = biological target: T30, 4H3343-AA; assay: two-hybrid library CCmax; conditions: mean of both orientations
T30 chain: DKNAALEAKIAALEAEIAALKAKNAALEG

[31] = biological target: T31, 4H429-AA; assay: two-hybrid library CCmax
T31 chain: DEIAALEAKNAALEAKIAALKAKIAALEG

[32] = biological target: T32, 4H454-AA; assay: two-hybrid library CCmax; conditions: mean of both orientations
T32 chain: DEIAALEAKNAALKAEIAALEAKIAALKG

[33] = biological target: T33, 4H678-AA; assay: two-hybrid library CCmax; conditions: mean of both orientations
T33 chain: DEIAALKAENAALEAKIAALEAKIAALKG

[34] = biological target: T34, 4H2165-AA; assay: two-hybrid library CCmax; conditions: mean of both orientations
T34 chain: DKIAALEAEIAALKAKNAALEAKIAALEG

[35] = biological target: T35, 4H2505-AA; assay: two-hybrid library CCmax; conditions: mean of both orientations
T35 chain: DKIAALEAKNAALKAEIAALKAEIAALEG

[36] = biological target: T36, 4H881-AA; assay: two-hybrid library CCmax; conditions: mean of both orientations
T36 chain: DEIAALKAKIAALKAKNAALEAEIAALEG

[37] = biological target: T37, 4H566-AA; assay: two-hybrid library CCmax; conditions: mean of both orientations
T37 chain: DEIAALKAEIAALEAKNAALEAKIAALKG

[38] = biological target: T38, 4H2944-AA; assay: two-hybrid library CCmax; conditions: mean of both orientations
T38 chain: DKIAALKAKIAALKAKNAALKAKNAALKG

[39] = biological target: T39, 4H2883-AA; assay: two-hybrid library CCmax; conditions: mean of both orientations
T39 chain: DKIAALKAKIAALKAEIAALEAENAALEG

[40] = biological target: T40, 4H1552-AA; assay: two-hybrid library CCmax; conditions: mean of both orientations
T40 chain: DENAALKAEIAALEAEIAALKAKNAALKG

[41] = biological target: T41, 4H3921-AA; assay: two-hybrid library CCmax; conditions: mean of both orientations
T41 chain: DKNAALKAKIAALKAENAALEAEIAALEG

[42] = biological target: T42, 4H717-AA; assay: two-hybrid library CCmax; conditions: mean of both orientations
T42 chain: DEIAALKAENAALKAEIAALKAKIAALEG

[43] = biological target: T43, 4H1401-AA; assay: two-hybrid library CCmax; conditions: mean of both orientations
T43 chain: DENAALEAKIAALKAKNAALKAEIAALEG

[44] = biological target: T44, 4H3844-AA; assay: two-hybrid library CCmax; conditions: mean of both orientations
T44 chain: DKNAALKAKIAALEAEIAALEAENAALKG

[45] = biological target: T45, 4H2642-AA; assay: two-hybrid library CCmax; conditions: mean of both orientations
T45 chain: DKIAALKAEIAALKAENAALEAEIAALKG

[46] = biological target: T46, 4H794-AA; assay: two-hybrid library CCmax; conditions: mean of both orientations
T46 chain: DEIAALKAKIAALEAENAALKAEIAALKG

[47] = biological target: T47, 4H234-AA; assay: two-hybrid library CCmax; conditions: mean of both orientations
T47 chain: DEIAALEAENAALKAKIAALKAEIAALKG

[48] = biological target: T48, 4H3427-AA; assay: two-hybrid library CCmax; conditions: mean of both orientations
T48 chain: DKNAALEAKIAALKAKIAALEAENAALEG

[49] = biological target: T49, 4H1867-AA; assay: two-hybrid library CCmax; conditions: mean of both orientations
T49 chain: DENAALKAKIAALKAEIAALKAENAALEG

[50] = biological target: T50, 4H2078-AA; assay: two-hybrid library CCmax; conditions: mean of both orientations
T50 chain: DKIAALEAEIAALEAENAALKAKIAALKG

[51] = biological target: T51, 4H335-AA; assay: two-hybrid library CCmax; conditions: mean of both orientations
T51 chain: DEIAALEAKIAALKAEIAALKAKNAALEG

[52] = biological target: T52, 4H48-AA; assay: two-hybrid library CCmax
T52 chain: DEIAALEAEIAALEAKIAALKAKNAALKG

[53] = biological target: T53, 4H2575-AA; assay: two-hybrid library CCmax; conditions: mean of both orientations
T53 chain: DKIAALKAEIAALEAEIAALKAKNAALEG

[54] = biological target: T54, 4H780-AA; assay: two-hybrid library CCmax; conditions: mean of both orientations
T54 chain: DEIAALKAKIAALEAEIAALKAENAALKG

[55] = biological target: T55, 4H2619-bN; assay: two-hybrid library CCNG1
T55 chain: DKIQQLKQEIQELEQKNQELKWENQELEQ

[56] = biological target: T56, 4H3112-bN; assay: two-hybrid library CCNG1
T56 chain: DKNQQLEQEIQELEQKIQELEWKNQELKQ

[57] = biological target: T57, 4H3961-bN; assay: two-hybrid library CCNG1
T57 chain: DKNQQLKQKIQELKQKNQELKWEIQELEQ

[58] = biological target: T58, 4H2745-bN; assay: two-hybrid library CCNG1
T58 chain: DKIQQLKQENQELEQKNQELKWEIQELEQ

[59] = biological target: T59, 4H470-bN; assay: two-hybrid library CCNG1
T59 chain: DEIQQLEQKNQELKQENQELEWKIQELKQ

[60] = biological target: T60, 4H344-bN; assay: two-hybrid library CCNG1
T60 chain: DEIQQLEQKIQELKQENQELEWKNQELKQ

[61] = biological target: T61, 4H363-bN; assay: two-hybrid library CCNG1
T61 chain: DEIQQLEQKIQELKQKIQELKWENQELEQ

[62] = biological target: T62, 4H3907-bN; assay: two-hybrid library CCNG1
T62 chain: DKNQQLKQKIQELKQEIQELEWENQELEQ

DKIQQLKQENQELEQEIQELEWENQELEQ [4H2691-bN]
interaction score [1]: -0.0194 | interaction score [2]: 1.01 | interaction score [3]: -1.21 | interaction score [4]: -0.448 | interaction score [5]: -1.24

DEIAALEAEIAALKAKNAALKAEIAALKG [4H122-AA]
interaction score [6]: 0.13 | interaction score [7]: -1.43 | interaction score [8]: 1.96 | interaction score [9]: -1.14 | interaction score [10]: -1.48 | interaction score [11]: -1.44 | interaction score [12]: 0.606 | interaction score [13]: 2.11 | interaction score [14]: -1.12 | interaction score [15]: 1.57 | interaction score [16]: 0.129 | interaction score [17]: -1.3 | interaction score [18]: -1.58 | interaction score [19]: -0.323 | interaction score [20]: -1.09 | interaction score [21]: -1.2 | interaction score [22]: 0.657 | interaction score [23]: 0.207 | interaction score [24]: 1.76 | interaction score [25]: -1.29 | interaction score [26]: -0.199 | interaction score [27]: 1.61 | interaction score [28]: 1.93 | interaction score [29]: 2.36 | interaction score [30]: -1.31 | interaction score [31]: -0.548 | interaction score [32]: -0.403 | interaction score [33]: 1.05 | interaction score [34]: -0.0868 | interaction score [35]: -1.39 | interaction score [36]: 1.43 | interaction score [37]: 1.5 | interaction score [38]: -1.12 | interaction score [39]: 0.209 | interaction score [40]: -1.07 | interaction score [41]: 2.16 | interaction score [42]: -1.17 | interaction score [43]: -1.2 | interaction score [44]: -0.909 | interaction score [45]: 1.83 | interaction score [46]: 1.48 | interaction score [47]: -1.28 | interaction score [48]: -0.449 | interaction score [49]: 1.01 | interaction score [50]: 2.3 | interaction score [51]: -1.07 | interaction score [52]: -0.383 | interaction score [53]: -0.393 | interaction score [54]: -1.74

DKIQQLKQEIQELEQKNQELKWENQELEQ [4H2619-bN]
interaction score [1]: 1.23 | interaction score [55]: 0.209 | interaction score [56]: 0.149 | interaction score [2]: -1.66 | interaction score [57]: -1.65 | interaction score [58]: -0.673 | interaction score [3]: -0.529 | interaction score [59]: -0.608 | interaction score [60]: 0.255 | interaction score [61]: -1.48 | interaction score [4]: -1.49 | interaction score [5]: -0.245 | interaction score [62]: -0.483
